Reference: patent US20140120109A1 (Regeneron, published 2014)

Experiments:
[1] = target: T1, full length human TL1A expressed on HEK293 cells (human, UniProt O95150 1-251); assay: flow, HEK293/hTL1A, mAb 1 ug/ml, no soluble hTL1A (maximum signal)
T1 construct: also called HEK293/hTL1A; cell-surface hTL1A
T1 sequence: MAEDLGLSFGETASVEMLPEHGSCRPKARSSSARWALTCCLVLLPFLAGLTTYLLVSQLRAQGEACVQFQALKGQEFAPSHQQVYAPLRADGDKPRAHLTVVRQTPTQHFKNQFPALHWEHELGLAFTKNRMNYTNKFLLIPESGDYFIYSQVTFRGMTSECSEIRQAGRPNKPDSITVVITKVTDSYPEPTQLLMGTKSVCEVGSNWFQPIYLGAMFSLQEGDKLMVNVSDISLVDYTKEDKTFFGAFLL
Protocol: (§1) Human embryonic kidney 293 cells stably transfected to over-express cell-surface hTL1A were first stained in a flow cytometric experiment with eight anti-hTL1A antibodies at four concentrations (1, 0.1, 0.01, and 0.003 μg/ml). […] The lowest antibody concentration providing significant staining levels was then used in a competition binding experiment. A negative isotype control antibody (human IgG4) was used at 1 μg/ml to define the background signal. For the competition experiment, eight antibody samples, at the minimal concentrations identified above, were first treated with soluble hTL1A expressed from CHO cells at concentrations ranging from 0.03 μg/ml to 10 μg/ml. After pre-incubation for 30 min on ice, the antibody/hTL1A mixture was added to 293/HEK-hTL1A cells that had been isolated by centrifugation in a 96-well conical plate. After incubation for an additional 10 minutes on ice, the cells were washed. The secondary reagent, anti-h Fcγ-APC F(ab′)₂, was added to all wells at a 200-fold dilution to detect bound antibodies. Samples were incubated for 15 minutes on ice, away from light, and then washed. Cells were processed on an BD™ LSR II Flow Cytometer (BD Biosciences) to detect anti-hTL1A antibodies bound to the cell surface, and data were analyzed using FlowJo software (version 8.8.6; Tree Star Inc.). Maximum signal: Anti-hTL1A antibody binding in the absence of soluble hTL1A; Minimum signal: Signal recorded when […] of isotype control antibody was added in place of the anti-hTL1A antibody. NT: Not tested.

[2] = target: T2, mouse TL1A, soluble, CHO-expressed, residues 76-252 of SEQ ID NO:250 with N-terminal His6-tag (mouse, UniProt Q5UBV8 76-252); assay: SPR 37C, mAb captured
T2 construct: also called mTL1A; mTL1A (CHO)
T2 sequence: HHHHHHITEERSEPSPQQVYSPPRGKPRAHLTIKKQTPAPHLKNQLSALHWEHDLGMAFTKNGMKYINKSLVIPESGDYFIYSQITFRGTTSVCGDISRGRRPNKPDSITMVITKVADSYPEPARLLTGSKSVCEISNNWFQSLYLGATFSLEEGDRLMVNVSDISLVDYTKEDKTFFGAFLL
Procedure, shortened: (§2)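 Biacore T100 SPR with captured mAb and soluble TL1A/Fhm analyte; ka and kd fitted to a 1:1 model assuming monomeric TL1A. KD = kd/ka; t1/2 (min) = ln2/(60·kd).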

[3] = target: T1, full length human TL1A expressed on …; assay: flow, HEK293/hTL1A, mAb 1 ug/ml + 0.3 ug/ml soluble hTL1A
Protocol: as §1

[4] = target: T3, human TL1A, soluble, CHO-expressed, residues 72-251 of SEQ ID NO:244 with N-terminal His6-tag (human, UniProt O95150 72-251); assay: cell-based or functional assay
T3 sequence: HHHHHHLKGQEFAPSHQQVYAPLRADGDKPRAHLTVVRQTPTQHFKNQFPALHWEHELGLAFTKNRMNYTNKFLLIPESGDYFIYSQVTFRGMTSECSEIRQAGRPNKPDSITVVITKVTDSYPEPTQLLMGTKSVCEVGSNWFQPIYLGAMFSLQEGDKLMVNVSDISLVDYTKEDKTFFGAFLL

[5] = target: T2, mouse TL1A, soluble, CHO-expressed, …; assay: SPR 25C, mAb captured
Procedure, shortened: as §2

[6] = target: T3, human TL1A, soluble, CHO-expressed, …; assay: SPR 37C, mAb captured; kd set at 1e-6 1/s
Protocol: Measurements were conducted on a T100 BIACORE™ instrument. […] Kinetic association (kₐ) and dissociation (kd) rate constants were determined by fitting the data to a 1:1 binding model using BIAevaluation 4.1 curve fitting software (BIAcore Life Sciences). Molar concentrations of TL1A/Fhm used in the data fitting assumed a monomeric state for TL1A in solution. Binding dissociation equilibrium constants (KD) and dissociative half-lives (t_{1/2}) were calculated from the kinetic rate constants as: KD (M)=kd/kₐ; and t_{1/2} (min)=[In2/(60*kd)].

B1: H4H1745P (antibody, human IgG4 S228P, V domains shown)
VH: EVQLVESGGGLVQPGGSLRLSCAASGFTFSSYAMTWVRQAPGKGLEWVSGVSGRGGSTYYADSVKGRFTISRDNSKNTLYLQMNSLRAEDTAVYYCAYWDISSFDYWGQGTLVTVSS
VL: DIQLTQSPSFLSASVGDRVTITCWASQGISTYLAWYQQKPGKTPKLLIYAASTLQSGVPSRFSGSGSGTDFTLTISSLQPEDFATYYCQQFNSYPLTFGGGTKVEIK
- MFI [1]: 87.2
- binding result [2]: no binding (tested: up to 100 nM)
- MFI [3]: 115

B2: H4H1817N (antibody, human IgG4 S228P, V domains shown)
VH: QVQLQQWGAGLLKPSETLSLTCAVSGGSFSDYFWTWIRQPPGKGLEWIGEISHSGRTNYNPSLKSRVTISVDTSMSQFSLKMTSVTAADSAVYYCARDYPNWVFDYWGQGTLVTVSS
VL: EIELTQSPGTLSLSPGEGATLSCRASQSVFNSYLAWYQQKPGQAPRLLIYGASRRATGIPDRFSGSGSGTDFTLTISRLEPGDFAVYFCQQYGNSPLTFGGGTKVEIK
notes: human IgG4(S108P) form of H2M1817N
- % Blocking IFN-g, D1, 1 ug/ml mAb [4]: 100%
- % Blocking IFN-g, D1, 3 ug/ml mAb [4]: 100%
- % Blocking IFN-g, D2, 1 ug/ml mAb [4]: 100%
- % Blocking IFN-g, D2, 3 ug/ml mAb [4]: 100%
- % Blocking IFN-g, D3, 1 ug/ml mAb [4]: 90%
- % Blocking IFN-g, D3, 3 ug/ml mAb [4]: 100%
- % Blocking IFN-g, D4, 1 ug/ml mAb [4]: 90%
- % Blocking IFN-g, D4, 3 ug/ml mAb [4]: 100%
- % Blocking IFN-g, D5, 1 ug/ml mAb [4]: 100%
- % Blocking IFN-g, D5, 3 ug/ml mAb [4]: 100%
- % Blocking IFN-g, D6, 1 ug/ml mAb [4]: 45%
- % Blocking IFN-g, D6, 3 ug/ml mAb [4]: 100%
- % Blocking IFN-g, D7, 1 ug/ml mAb [4]: 55%
- % Blocking IFN-g, D7, 3 ug/ml mAb [4]: 100%
- % Blocking IFN-g, D8, 1 ug/ml mAb [4]: 100%
- % Blocking IFN-g, D8, 3 ug/ml mAb [4]: 100%
- % Blocking IFN-g, D9, 1 ug/ml mAb [4]: 55%
- % Blocking IFN-g, D9, 3 ug/ml mAb [4]: 95%
- % Blocking IFN-g, D10, 1 ug/ml mAb [4]: 80%
- % Blocking IFN-g, D10, 3 ug/ml mAb [4]: 85%
- MFI [1]: 110
- MFI [3]: 23.6
- binding result [5]: no binding (tested: up to 100 nM)

B3: H4H1742P (antibody, human IgG4 S228P, V domains shown)
VH: EVQLVESGGGLVQPGGSLRLSCAASGFTFSNYVMNWVRQAPGKGLEWVSVISGSGGSTHYADSVKGRFTISRDNSKDALYLQMNSLRAEDTAVYYCAKGPLEAYYYYNGMDVWGQGTTVTVSS
VL: DIQLTQSPSFLSASVGDRVTITCWASQAISSYLAWYQHKPGRAPKLLIYSTSTLQSGVPSRFSGSGSGTEFTLTISSLQPEDFATYYCQQLNSYPTFGQGTKLEIK
- MFI [1]: 126
- binding result [2]: no binding (tested: up to 100 nM)
- MFI [3]: 44.7
- Kd [6]: ≤ 4.37 pM
- t1/2 [6]: ≥ 192 h

B4: H4H1681N (antibody, human IgG4 S228P, V domains shown)
VH: EVQLLESGGGLVQPGKSLRLSCAVSGFTFSTYGMNWVRQAPGKGLEWVSSISGTGRTTYHADSVQGRFTVSRDNSKNILYLQMNSLRADDTAVYFCTKERGDYYYGVFDYWGQGTLVTVSS
VL: DIQMTQSPSTLSASVGDRVTITCRASQTISSWLAWYQQTPEKAPKLLIYAASNLQSGVPSRFSGSGSGTEFTLTISSLQPDDFATYYCQQYHRSWTFGQGTKVEIT
- MFI [1]: 320
- MFI [3]: 236
- binding result [5]: no binding (tested: up to 100 nM)
